Target: Recombinant Art v 3.0201, non-specific lipid transfer protein of Artemisia vulgaris (mugwort) pollen (Artemisia vulgaris (mugwort)) (UniProt C4MGG9)
Assay: crystal structure + other: NMR spectroscopy; recombinant non-tagged Art v 3.0201; X-ray crystallography of the non-labelled protein, NMR of the 13C/15N-labelled protein

stoichiometry N: 2
Substance: Recombinant Art v 3.0201, non-specific lipid transfer protein of Artemisia vulgaris (mugwort) pollen (from UniProt C4MGG9 1-114) (non-labelled protein)

From PMC5998909
